Patent US10435456B2, “Compositions and methods for increasing the expression and signalling of proteins on cell surfaces” (THE JOHNS HOPKINS UNIVERSITY, priority 2014, dated 2019)
“Also recorded” adds a separate entry of the source.

T1: mOREG (Mus musculus, UniProt Q920P2)
T1 construct: The mOR-EG full-length construct, containing N-terminal Flag/Rho tags, was a kind gift from Kazushige Touhara; only in the L-EG and L-R-EG constructs) (N, cleaved yes); expressed in transfected cells; host or cells: HEK293T
T1 sequence (Q920P2 1-313): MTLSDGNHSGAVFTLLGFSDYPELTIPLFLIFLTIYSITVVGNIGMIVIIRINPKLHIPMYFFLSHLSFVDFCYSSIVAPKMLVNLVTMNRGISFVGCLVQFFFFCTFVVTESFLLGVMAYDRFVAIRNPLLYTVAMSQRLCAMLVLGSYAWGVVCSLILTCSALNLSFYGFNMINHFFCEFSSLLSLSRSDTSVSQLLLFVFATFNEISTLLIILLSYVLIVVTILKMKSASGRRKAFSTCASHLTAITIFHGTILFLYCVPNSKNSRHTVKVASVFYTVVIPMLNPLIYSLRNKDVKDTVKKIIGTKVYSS

T2: Olfr691 (Mus musculus, UniProt Q8VGW5)
T2 sequence (Q8VGW5 1-322): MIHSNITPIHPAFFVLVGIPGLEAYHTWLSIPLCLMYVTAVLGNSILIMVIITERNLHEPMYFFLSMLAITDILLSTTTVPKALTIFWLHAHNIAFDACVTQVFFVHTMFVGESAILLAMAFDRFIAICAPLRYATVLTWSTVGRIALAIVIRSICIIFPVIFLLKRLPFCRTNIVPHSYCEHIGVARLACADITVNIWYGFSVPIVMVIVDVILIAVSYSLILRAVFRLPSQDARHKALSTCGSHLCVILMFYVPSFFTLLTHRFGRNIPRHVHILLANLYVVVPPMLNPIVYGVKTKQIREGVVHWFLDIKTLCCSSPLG

B1: hOR52B2: human homologue of Olfr691, Flag-tagged construct (protein, UniProt Q96RD2 1-323, looked up)
Olfactory receptor 52B2: MSHTNVTIFHPAVFVLPGIPGLEAYHIWLSIPLCLIYITAVLGNSILIVVIVMERNLHVPMYFFLSMLAVMDILLSTTTVPKALAIFWLQAHNIAFDACVTQGFFVHMMFVGESAILLAMAFDRFVAICAPLRYTTVLTWPVVGRIALAVITRSFCIIFPVIFLLKRLPFCLTNIVPHSYCEHIGVARLACADITVNIWYGFSVPIVMVILDVILIAVSYSLILRAVFRLPSQDARHKALSTCGSHLCVILMFYVPSFFTLLTHHFGRNIPQHVHILLANLYVAVPPMLNPIVYGVKTKQIREGVAHRFFDIKTWCCTSPLGS
modifications: Flag tag
notes: human homologue of Olfr691, Flag-tagged construct
B2: hOR51E2: human olfactory receptor, Flag-tagged construct (protein, UniProt Q9H255 1-320, looked up)
Olfactory receptor 51E2: MSSCNFTHATFVLIGIPGLEKAHFWVGFPLLSMYVVAMFGNCIVVFIVRTERSLHAPMYLFLCMLAAIDLALSTSTMPKILALFWFDSREISFEACLTQMFFIHALSAIESTILLAMAFDRYVAICHPLRHAAVLNNTVTAQIGIVAVVRGSLFFFPLPLLIKRLAFCHSNVLSHSYCVHQDVMKLAYADTLPNVVYGLTAILLVMGVDVMFISLSYFLIIRTVLQLPSKSERAKAFGTCVSHIGVVLAFYVPLIGLSVVHRFGNSLHPIVRVVMGDIYLLLPPVINPIIYGAKTKQIRTRVLAMFKISCDKDLQAVGGK
modifications: Flag tag
notes: human olfactory receptor, Flag-tagged construct

Tests used:
[1] = biological target: T1, mOREG; experiment: CRE luciferase reporter assay (Firefly:Renilla), mOREG constructs; assay type: cell-based, murine; conditions: Rho-mOREG, Lucy-mOREG, no RTP1S, 100-300 μM eugenol
Description: The luciferase assay was performed as previously described. Briefly, ORs were transfected into HEK293T cells along with constructs encoding for CREB-dependent luciferase (Firefly) and a constitutively expressed luciferase (Renilla). OR activation leads to a rise in cAMP which drives an increase in Firefly luciferase expression. Firefly activity is normalized to the activity of the Renilla luciferase to control for variation in cell number and transfection efficiency. Data were collected using a FLUOstar Omega automated platereader (BMG LabTech, Cary, N.C.). For some experiments, RTP1S was also transfected.
As mOREG is one of the ORs that reach the cell surface under every condition tested, we expressed the OR with and without the Lucy and Rho tags and assessed its response to eugenol.

[2] = biological target: T2, Olfr691; experiment: CRE luciferase reporter assay (Firefly:Renilla), Olfr691 constructs; conditions: 0.1-5 mM isovaleric acid
[3] = system: murine Gpr160; experiment: Surface expression of murine Gpr160; assay type: cell-based; conditions: HEK293T cells
[4] = system: human GPR160; experiment: Surface expression of human GPR160; assay type: cell-based; conditions: HEK293T cells
[5] = system: HEK293T cells; experiment: Surface immunocytochemistry of Flag-tagged olfactory receptor constructs; assay type: cell-based; design: key to OR surface expression (trafficking): −: No detectable OR surface expression; +: OR surface expression detected in the majority of fields of view (>90% of all fields of view); *: OR surface expression detected in a minority of fields of view (<50% of all fields of view); conditions: for OR surface expression (trafficking): HEK293T
Description: HEK293T cells were seeded onto 18-mm coverslips coated with poly-L-lysine and transfected with OR constructs with or without accessory proteins (Lipofectamine 2000, Invitrogen). Flag-tagged OR trafficking was assayed using surface immunocytochemistry, as previously described. Briefly, live, non-permeabilized cells at 4° C. were exposed to a rabbit polyclonal anti-Flag antibody in PBS with 0.1% BSA. Subsequently, cells were washed, fixed with 4% paraformaldehyde, permeabilized (0.3% Triton X-100) and then exposed to a mouse monoclonal (M2) anti-Flag antibody. As the external Flag epitope (surface Flag) epitope is ‘blocked’ after binding to the polyclonal Flag antibody, the monoclonal Flag antibody detects only the internal population of ORs. […] Fluorescent secondary antibodies reported the localization of the polyclonal and monoclonal Flag-tags. Cells were visualized for epifluorescence using a Zeiss Axiophot microscope (Thornwood, N.Y.). Images were taken with a CoolSnap Digita Camera (Photometrics, Tucson, Ariz.) and IP Labs software (Biovision, Exton, Pa.). For some experiments, a total of 0.8 μg of accessory plasmids (pcDNA3-RTP1S (modified from RTP1L, kind gift from S. Firestein, Columbia Univ.), pCMV Sport6-Ric8b (purchased from Open Biosystems), and pcDNA3.1-Gαolf (subcloned from a pGEMHE2 Gαolf construct, kind gift from S. Firestein, Columbia Univ.)) or 0.8 μg of an empty pcDNA4.1 vector (OR alone) were co-transfected along with 0.8 μg of the OR. In FIGS. 1 and 2, the immunofluorescent images shown in each row (OR, Rho-OR, Lucy-OR and Lucy-Rho-OR with and without accessory proteins) were transfected and processed simultaneously and image exposures remained constant for each OR. Images represent representative fields of view from at least 4 independent experiments. To assess OR surface expression, the entirety of each coverslip was systematically scanned and scored based on detectable surface immunofluorescence. A ‘+’ was scored for those ORs whose surface expression was detectable in >90% of all fields of view while ORs received an ‘*’ if surface expression was found in <50% of all fields of view. A complete lack of detectable surface expression was scored as a ‘−’. To quantitate cell surface expression using ImageJ (FIG. 14), the background was subtracted from the surface labeled Olfr691 images and the mean fluorescence intensity was measured. The mean intensity was normalized to the mean intensity of the corresponding binary nuclear image, to control for cell number.
ORs were cloned and co-expressed in HEK293T cells without Rho or Lucy tags (OR), with a Rho tag (Rho-OR), with the Lucy tag (Lucy-OR) or with both the Lucy and Rho tags (Lucy-Rho-OR) along with (or without) the chaperone proteins, RTP1S, Ric8b and Gαolf. The cells were then surface labeled with a Flag antibody to detect membrane-associated OR. Images were taken for each OR at equal exposure for all conditions. To assess OR surface expression, the entirety of each coverslip was systematically scanned and scored based on detectable surface immunofluorescence. A ‘+’ was scored for those ORs whose surface expression was detectable in >90% of all fields of view while ORs received an ‘*’ if surface expression was found in <50% of all fields of view. A complete lack of detectable surface expression was scored as a ‘−’.
Many ORs remain orphan receptors due to their inability to traffic in in vitro assays. To establish the trafficking ability of a varied group of ORs, we cloned 15 diverse ORs, the majority of which are orphan receptors which have not been previously reported to reach the cell surface. Live, non-permeabilized HEK 293T cells were surface labeled with a Flag antibody to detect membrane associated receptor and OR surface expression was scored based on detectable surface immunofluorescence. […]

[6] = column 1: OR (Flag tag only, no Rho or Lucy tag), chaperones none
[7] = column 2: OR (Flag tag only), with RTP1S, Ric8b, Gαolf
[8] = column 3: Rho-OR, chaperones none
[9] = column 4: Rho-OR, with RTP1S, Ric8b, Gαolf
[10] = column 5: Lucy-OR, chaperones none
[11] = column 6: Lucy-OR, with RTP1S, Ric8b, Gαolf
[12] = column 7: Lucy-Rho-OR, chaperones none
[13] = column 8: Lucy-Rho-OR, with RTP1S, Ric8b, Gαolf

Molecule	OR surface expression (trafficking) [5, 6]	OR surface expression (trafficking) [5, 7]	OR surface expression (trafficking) [5, 8]	OR surface expression (trafficking) [5, 9]	OR surface expression (trafficking) [5, 10]	OR surface expression (trafficking) [5, 11]	OR surface expression (trafficking) [5, 12]	OR surface expression (trafficking) [5, 13]	also measured
C=CCc1ccc(O)c(OC)c1 [eugenol]									OR activation (Firefly:Renilla ratio) [1]: dose-dependent activation; also recorded: significantly activated
CC(C)CC(=O)O [isovaleric acid]									OR activation (Firefly:Renilla ratio) ([2]; Lucy-Rho-Olfr691 with and without RTP1S): responded to isovaleric acid in a dose-dependent manner; OR activation (Firefly:Renilla ratio) ([2]; Rho-Olfr691 co-expressed with RTP1S): dose-dependent increase in the Firefly: Renilla ratio; OR activation (Firefly:Renilla ratio) ([2]; Rho-Olfr691 without RTP1S): not significantly activated at any concentration; also recorded: no concentrations of isovaleric acid activated R-691
Lucy tag: 17-amino acid cleavable signal peptide from LRRC32, MRPQILLLLALLTLGLA (SEQ ID NO:3) (Amino acid sequence of Lucy tag)									surface expression of murine Gpr160 [3]: promotes surface expression; surface expression of human GPR160 [4]: promotes surface expression
B1	−	−	−	−	+ (OR surface expression detected in the majority of fields of view (>90% of all fields of view))	+ (OR surface expression detected in the majority of fields of view (>90% of all fields of view))	+ (OR surface expression detected in the majority of fields of view (>90% of all fields of view))	+ (OR surface expression detected in the majority of fields of view (>90% of all fields of view))	surface trafficking, Rho-tagged vs Lucy-Rho-tagged OR, in words ([5]; no accessory proteins, 24 h transfection): traffic to the surface with but not without the Lucy tag
B2	+ (OR surface expression detected in the majority of fields of view (>90% of all fields of view))	+ (OR surface expression detected in the majority of fields of view (>90% of all fields of view))	+ (OR surface expression detected in the majority of fields of view (>90% of all fields of view))	+ (OR surface expression detected in the majority of fields of view (>90% of all fields of view))	+ (OR surface expression detected in the majority of fields of view (>90% of all fields of view))	+ (OR surface expression detected in the majority of fields of view (>90% of all fields of view))	+ (OR surface expression detected in the majority of fields of view (>90% of all fields of view))	+ (OR surface expression detected in the majority of fields of view (>90% of all fields of view))	
